Experimental findings from patent US20200123228A1 are described below.

The experiment concerns the target bovine collagen (Symatese), polymerized gel (bovine). The experiment can be described thus: retention on polymerized bovine collagen gel, antibody loaded at 10 µg/mL, released antibody measured by ELISA.

Where no end group is shown, it is not given here.

B1: PlGF-2123-144-αPD-L1 (clone 10F.9G2) (antibody, part only; not given: anti-PD-L1 antibody, part only)
peptide: RRRPKGRGKRRREKQRPTDCHL
modifications: not fully specified (residue 20); also: antibody conjugate, average 6 peptides per antibody
Take B1: the % of bound antibody released by plasmin digestion after buffer changes was determined as 47.1%.
